9 molecules from paper PMC7710722, “A nanobody suite for yeast scaffold nucleoporins provides details of the nuclear pore complex structure” (Nature Communications, 2020) can be followed below.

For orientation: Kd means a measure of binding affinity in units of concentration. A low value points to higher affinity. The koff is the first-order rate constant of dissociation. Broadly, the kon is the rate constant with which the complex forms.

Common to all, as to experiment: BLI; biotinylated, C-terminally Avi-tagged nanobody immobilised on streptavidin tips, nup as analyte in twofold dilution series; 10 mM Tris/HCl pH 7.5, 150 mM NaCl, 1 mM DTT, 0.1 mM EDTA, 0.05% Tween-20, 0.1% BSA; global 1:1 kinetic fit
Holding throughout (conditions): both partners purified

Test [1] deals with T1, Nup85 (analyte of the BLI of Table 1) (Saccharomyces cerevisiae S288c, UniProt P46673).
T1 construct: Nup85, S. cerevisiae; the analyte may have been a complex with Seh1; source: E. coli, recombinant

The target of test [2] is T2, Nup84 (S. cerevisiae, UniProt P52891).
T2 construct: Nup84, S. cerevisiae; limits not given; source: E. coli LOBSTR-RIL(DE3), purified (Ni Sepharose, 3C protease, HiTrap SP FF flow-through, Superdex S200)
T2 sequence (P52891 whole entry): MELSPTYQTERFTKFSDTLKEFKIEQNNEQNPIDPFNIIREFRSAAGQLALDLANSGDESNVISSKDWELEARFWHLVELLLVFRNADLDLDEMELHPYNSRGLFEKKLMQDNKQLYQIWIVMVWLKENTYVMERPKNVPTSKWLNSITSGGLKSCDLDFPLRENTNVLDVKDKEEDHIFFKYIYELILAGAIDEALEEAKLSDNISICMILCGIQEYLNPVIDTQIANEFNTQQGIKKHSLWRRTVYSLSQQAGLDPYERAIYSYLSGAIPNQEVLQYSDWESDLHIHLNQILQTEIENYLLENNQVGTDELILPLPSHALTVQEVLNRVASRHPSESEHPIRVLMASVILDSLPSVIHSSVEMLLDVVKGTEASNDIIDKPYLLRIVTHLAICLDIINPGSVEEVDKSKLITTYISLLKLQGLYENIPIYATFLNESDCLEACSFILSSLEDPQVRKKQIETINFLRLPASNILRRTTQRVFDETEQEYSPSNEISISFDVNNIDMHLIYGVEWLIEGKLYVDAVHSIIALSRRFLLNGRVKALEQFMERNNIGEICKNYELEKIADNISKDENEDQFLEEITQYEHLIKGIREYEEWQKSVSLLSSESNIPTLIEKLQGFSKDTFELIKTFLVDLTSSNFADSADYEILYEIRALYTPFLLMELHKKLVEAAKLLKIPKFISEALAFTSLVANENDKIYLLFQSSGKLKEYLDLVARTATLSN

Test [3] addresses T3, Nup133 (analyte of the BLI of Table 1) (Saccharomyces cerevisiae (strain ATCC …, UniProt P36161)).
T3 construct: Nup133, S. cerevisiae; source: E. coli, recombinant

The target in test [4] is T4, Nup120 (analyte of the BLI of Table 1) (Saccharomyces cerevisiae S288c, UniProt P35729).
T4 construct: Nup120, S. cerevisiae; source: E. coli, recombinant
T4 sequence (P35729 whole entry): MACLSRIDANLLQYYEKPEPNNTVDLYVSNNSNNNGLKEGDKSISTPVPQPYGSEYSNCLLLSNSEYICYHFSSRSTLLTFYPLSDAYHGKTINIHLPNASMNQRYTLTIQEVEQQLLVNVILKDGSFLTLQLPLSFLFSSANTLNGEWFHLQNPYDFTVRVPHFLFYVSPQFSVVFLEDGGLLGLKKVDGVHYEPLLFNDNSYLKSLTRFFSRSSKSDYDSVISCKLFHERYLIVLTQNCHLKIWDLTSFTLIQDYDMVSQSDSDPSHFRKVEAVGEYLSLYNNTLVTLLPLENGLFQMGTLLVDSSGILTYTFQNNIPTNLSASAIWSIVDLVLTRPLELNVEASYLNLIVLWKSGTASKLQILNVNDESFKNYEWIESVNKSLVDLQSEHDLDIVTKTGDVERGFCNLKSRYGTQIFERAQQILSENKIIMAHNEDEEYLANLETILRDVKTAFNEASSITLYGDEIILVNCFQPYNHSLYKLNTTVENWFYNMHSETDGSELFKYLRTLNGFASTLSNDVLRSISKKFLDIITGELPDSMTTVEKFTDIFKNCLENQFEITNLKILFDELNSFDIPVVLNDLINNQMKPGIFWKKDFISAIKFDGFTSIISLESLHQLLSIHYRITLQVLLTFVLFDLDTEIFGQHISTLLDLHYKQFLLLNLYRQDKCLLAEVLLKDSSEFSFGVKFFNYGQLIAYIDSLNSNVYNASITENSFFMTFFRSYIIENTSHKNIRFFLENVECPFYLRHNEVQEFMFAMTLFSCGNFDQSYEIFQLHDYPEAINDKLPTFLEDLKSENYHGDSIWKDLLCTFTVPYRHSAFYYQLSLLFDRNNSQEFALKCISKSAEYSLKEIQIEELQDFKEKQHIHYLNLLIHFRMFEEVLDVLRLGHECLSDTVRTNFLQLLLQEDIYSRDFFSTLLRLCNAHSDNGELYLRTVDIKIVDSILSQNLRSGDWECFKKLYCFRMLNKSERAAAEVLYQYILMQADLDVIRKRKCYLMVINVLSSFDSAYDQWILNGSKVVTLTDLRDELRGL

T3 sequence (P36161 whole entry): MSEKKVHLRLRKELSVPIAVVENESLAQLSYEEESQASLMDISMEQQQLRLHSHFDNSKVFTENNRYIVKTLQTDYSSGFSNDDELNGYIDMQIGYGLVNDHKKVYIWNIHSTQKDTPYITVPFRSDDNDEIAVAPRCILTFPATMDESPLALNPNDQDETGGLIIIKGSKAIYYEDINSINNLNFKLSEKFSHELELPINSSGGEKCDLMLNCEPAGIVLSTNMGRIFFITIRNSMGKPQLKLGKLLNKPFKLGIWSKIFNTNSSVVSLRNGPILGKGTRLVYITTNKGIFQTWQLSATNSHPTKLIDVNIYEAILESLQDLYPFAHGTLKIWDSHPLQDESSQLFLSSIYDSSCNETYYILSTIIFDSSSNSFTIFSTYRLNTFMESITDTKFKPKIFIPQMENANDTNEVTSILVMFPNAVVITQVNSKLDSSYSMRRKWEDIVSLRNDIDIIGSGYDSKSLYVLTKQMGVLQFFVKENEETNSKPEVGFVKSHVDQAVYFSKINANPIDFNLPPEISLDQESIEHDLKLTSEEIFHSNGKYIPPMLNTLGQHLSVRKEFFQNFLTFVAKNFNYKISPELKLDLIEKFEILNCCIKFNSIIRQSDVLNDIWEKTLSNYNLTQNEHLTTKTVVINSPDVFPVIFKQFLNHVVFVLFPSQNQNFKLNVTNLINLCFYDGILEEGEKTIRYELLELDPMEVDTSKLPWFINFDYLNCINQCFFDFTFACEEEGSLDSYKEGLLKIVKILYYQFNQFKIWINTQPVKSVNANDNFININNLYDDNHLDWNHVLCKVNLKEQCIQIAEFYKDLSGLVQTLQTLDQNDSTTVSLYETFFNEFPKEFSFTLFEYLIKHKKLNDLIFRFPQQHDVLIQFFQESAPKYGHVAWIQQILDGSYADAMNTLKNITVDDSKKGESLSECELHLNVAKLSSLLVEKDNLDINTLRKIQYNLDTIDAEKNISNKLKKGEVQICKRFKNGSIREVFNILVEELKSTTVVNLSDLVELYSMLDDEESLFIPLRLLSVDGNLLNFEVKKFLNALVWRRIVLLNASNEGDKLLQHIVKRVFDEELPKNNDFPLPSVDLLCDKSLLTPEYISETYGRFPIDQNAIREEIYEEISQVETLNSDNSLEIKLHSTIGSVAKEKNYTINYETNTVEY

B1: VHH-SAN1 with biotinylated C-terminal Avi-tag (VHH)
VHH: QVQLVETGGGLVPPGGSLKLSCAVSGDILRVQTMGWYRQAPGKQRELVAAFTGGGRTNYADSMKGRFTISRDNAKNTVFLQMNSLKPEDTAVYYCRADIAAVRPWPLQEYWGQGTQVTVSS
notes: Separate Avi-tagged construct used for BLI; source: E. coli LOBSTR-RIL(DE3), biotin added to the culture, purified (Ni Sepharose, SEN-p protease, Superdex S75); not shown: 14xHis, N-terminal, cleaved; bdSUMO, N-terminal, cleaved; Avi-tag, C-terminal, kept
For the molecule B1, in test [1], the dissociation constant (Kd) is 0.58 nM, the koff turned out to be 0.0014 s⁻¹ and the kon is 2.3e+06 M⁻¹ s⁻¹.

B2: VHH-SAN8 with biotinylated C-terminal Avi-tag (VHH)
VHH: QLQLVETGGGLVQAGGSLRLSCVASGRTFTSYAMGWFRQAPGKEREFVAAISRLASGTDYADSVKGRFTISRNNDKNTVYLQMNNLIPEDTAVYYCAALQALRFSLPIAMATMKNGRADSWGQGTQVTVSS
notes: as for B1
As for B2, in test [2], the Kd was 0.063 nM, the koff came out at 2.2e-05 s⁻¹ and the kon was found to be 350000 M⁻¹ s⁻¹.

B3: VHH-SAN9 with biotinylated C-terminal Avi-tag (VHH)
VHH: QVQLVESGGGSVQAGGSLRLSCAVSGGTLSTLAMGWFRQAPGQEREFVARIGWTNGDTGYADSVKGRFTISRDNVKNTVYLQMNNLKPEDTALYYCATRRPYGSTLYPPNTESAHDNWGQGTQVTVSS
notes: as for B1
Regarding B3, in test [2], the Kd was found to be 0.17 nM, the koff was 7.7e-05 s⁻¹ and the kon worked out at 440000 M⁻¹ s⁻¹.

B4: VHH-SAN2 with biotinylated C-terminal Avi-tag (VHH)
VHH: QVQLVETGGGLVQPGGSLRLSCAASGFTLDDYAIGWFRQAPGKEREGVSCISRSGGSTTYTDSVKGRFTISRDNAENTVYLQMNSLKPEDTAVYYCAAARTRGTCWLNRIGMDYWGKGTQVTVSS
notes: also in PDB 6X08; Separate Avi-tagged construct used for BLI; source: E. coli LOBSTR-RIL(DE3), biotin added to the culture, purified (Ni Sepharose, SEN-p protease, Superdex S75); not shown: 14xHis, N-terminal, cleaved; bdSUMO, N-terminal, cleaved; Avi-tag, C-terminal, kept
In test [1], B4 showed a Kd of 0.08 nM, an off-rate constant (koff) of 8.1e-05 s⁻¹ and an association rate constant (kon) of 1e+06 M⁻¹ s⁻¹.

B5: VHH-SAN4 with biotinylated C-terminal Avi-tag (VHH)
VHH: QLQLVESGGGSVQAGGSLTLSCTASESISKRIHGIGWFRQRRGEQREEIAYITTGGRPNLGDSVKDRFTISRDKSNGTVYLQMNSLKPEDTAVYYCHGRGRWWGTEGRLDYWGQGTQVTVSS
notes: as for B1
As for B5, in test [3], binding was characterised by a dissociation constant (Kd) of 230 nM, the koff was 0.22 s⁻¹ and the kon turned out to be 950000 M⁻¹ s⁻¹.

B6: VHH-SAN5 with biotinylated C-terminal Avi-tag (VHH)
VHH: QVQLVESGGGLVQAGGSLRLSCAASGSIGSLDAMAWYRRAPGKQRERVASISRYGTYYVDSVKGRFTISRDNAKNTVYLQMNSLKPEDTGVYYCKGVMEVGGVIDEYWGQGTQVTVSS
notes: as for B1
In test [3], B6 came in with a dissociation constant Kd of 10 nM, a dissociation rate constant (koff) of 0.0028 s⁻¹ and a kon of 280000 M⁻¹ s⁻¹.

B7: VHH-SAN11 with biotinylated C-terminal Avi-tag (VHH)
VHH: QVQLVETGGGLVRAGGSLRLSCVDSGRTFRVYTMGWFRQAPGKEREFVAAIRWSGDRTYYGDPVQGRFTISRDKGKNTVYLQMNSLKPEDTAVYYCAAPAGGGVVYDDHKAYAYWGQGTQVTVS
notes: also in PDB 6X06; Separate Avi-tagged construct used for BLI; source: E. coli LOBSTR-RIL(DE3), biotin added to the culture, purified (Ni Sepharose, SEN-p protease, Superdex S75); not shown: 14xHis, N-terminal, cleaved; bdSUMO, N-terminal, cleaved; Avi-tag, C-terminal, kept
As to B7, in test [4], binding was put at a Kd of 0.79 nM, the koff is 0.00078 s⁻¹ and the kon stood at 980000 M⁻¹ s⁻¹.

B8: VHH-SAN3 with biotinylated C-terminal Avi-tag (VHH)
VHH: QVQLVESGGGLVQAGGSLRLSCFASGGTFSRYDMGWFRQAPGKEREFVARITRGGRVADYAAFVEGRFTISRDNAKNTVYLQMNSLKPEDTGIYFCAGKDAGVFDFYLWGQGTQVTVSS
notes: as for B1
For the molecule B8, in test [1], the equilibrium dissociation constant (Kd) is 0.014 nM, the koff came to 8.1e-06 s⁻¹ and the kon is 580000 M⁻¹ s⁻¹.

B9: VHH-SAN10 with biotinylated C-terminal Avi-tag (VHH)
VHH: QVQLVETGGGLVQAGGSLRLSCVVSGRTFSSYAMGWFRQAPGKEREFVSGINWSGGSAYYGDSVKGRFTISRDNAKNTVYLQMNSLKPEDTAVYYCVADRAWRGTTWRADSSYDYWGQGTQVTVSS
notes: deposited with PDB 6X06, but no density for VHH-SAN10 in the map; Separate Avi-tagged construct used for BLI; source: E. coli LOBSTR-RIL(DE3), biotin added to the culture, purified (Ni Sepharose, SEN-p protease, Superdex S75); not shown: 14xHis, N-terminal, cleaved; bdSUMO, N-terminal, cleaved; Avi-tag, C-terminal, kept
In test [4], B9 came in with a Kd of 0.38 nM, an off-rate (koff) of 0.00017 s⁻¹ and a kon of 450000 M⁻¹ s⁻¹.
